The chains are these.
B1: purified AnxA1-(His)6 (other)
chain: MAMVSEFLKQAWFIENEEQEYVQTVKSSKGGPGSAVSPYPTFNPSSDVAALHKAIMVKGVDEATIIDILTKRNNAQRQQIKAAYLQETGKPLDETLKKALTGHLEEVVLALLKTPAQFDADELRAAMKGLGTDEDTLIEILASRTNKEIRDINRVYREELKRDLAKDITSDTSGDFRNALLSLAKGDRSEDFGVNEDLADSDARALYEAGERRKGTDVNVFNTILTTRSYPQLRRVFQKYTKYSKHDMNKVLDLELKGDIEKCLTAIVKCATSKPAFFAEKLHQAMKGVGTRHKALIRIMVSRSEIDMNDIKAFYQKMYGISLCQAILDETKGDYEKILVALCGGNHHHHHH
B2: peptide No 896970 (73-mer AnxA2 R1 peptide extending from amino acids 25 to 97) (peptide)
peptide: GSVKAYTNFDAERDALNIETAIKTKGVDEVTIVNILTNRSNAQRQDIAFAYQRRTKKELASALKSALSGHLET
notes: also called AnxA2 25-97 peptide
B3: AnxA1-HA (human AnxA1 with C-terminal HA epitope) (other)
chain: MAMVSEFLKQAWFIENEEQEYVQTVKSSKGGPGSAVSPYPTFNPSSDVAALHKAIMVKGVDEATIIDILTKRNNAQRQQIKAAYLQETGKPLDETLKKALTGHLEEVVLALLKTPAQFDADELRAAMKGLGTDEDTLIEILASRTNKEIRDINRVYREELKRDLAKDITSDTSGDFRNALLSLAKGDRSEDFGVNEDLADSDARALYEAGERRKGTDVNVFNTILTTRSYPQLRRVFQKYTKYSKHDMNKVLDLELKGDIEKCLTAIVKCATSKPAFFAEKLHQAMKGVGTRHKALIRIMVSRSEIDMNDIKAFYQKMYGISLCQAILDETKGDYEKILVALCGGNYPYDVPDYA
B4: AnxA2 ΔR3-HA (deletion of aa 193-268) (other)
chain: MSTVHEILCKLSLEGDHSTPPSAYGSVKAYTNFDAERDALNIETAIKTKGVDEVTIVNILTNRSNAQRQDIAFAYQRRTKKELASALKSALSGHLETVILGLLKTPAQYDASELKASMKGLGTDEDSLIEIICSRTNQELQEINRVYKEMYKTDLEKDIISDTSGDFRKLMVALAKGRRAEDGSVIDYELIDYFADRLYDSMKGKGTRDKVLIRIMVSRSEVDMLKIRSEFKRKYGKSLYYYIQQDTKGDYQKALLYLCGGDDYPYDVPDYA
notes: also called Δ193-268 (R3)
B5: human Annexin A1 (AnxA1), untagged (other, UniProt P04083 2-346, looked up)
chain: AMVSEFLKQAWFIENEEQEYVQTVKSSKGGPGSAVSPYPTFNPSSDVAALHKAIMVKGVDEATIIDILTKRNNAQRQQIKAAYLQETGKPLDETLKKALTGHLEEVVLALLKTPAQFDADELRAAMKGLGTDEDTLIEILASRTNKEIRDINRVYREELKRDLAKDITSDTSGDFRNALLSLAKGDRSEDFGVNEDLADSDARALYEAGERRKGTDVNVFNTILTTRSYPQLRRVFQKYTKYSKHDMNKVLDLELKGDIEKCLTAIVKCATSKPAFFAEKLHQAMKGVGTRHKALIRIMVSRSEIDMNDIKAFYQKMYGISLCQAILDETKGDYEKILVALCGGN
notes: Overexpressed in CHO cells as control
B6: AnxA2 ΔR1-HA (deletion of aa 37-108) (other)
chain: MSTVHEILCKLSLEGDHSTPPSAYGSVKAYTNFDAEYDASELKASMKGLGTDEDSLIEIICSRTNQELQEINRVYKEMYKTDLEKDIISDTSGDFRKLMVALAKGRRAEDGSVIDYELIDQDARDLYDAGVKRKGTDVPKWISIMTERSVPHLQKVFDRYKSYSPYDMLESIRKEVKGDLENAFLNLVQCIQNKPLYFADRLYDSMKGKGTRDKVLIRIMVSRSEVDMLKIRSEFKRKYGKSLYYYIQQDTKGDYQKALLYLCGGDDYPYDVPDYA
notes: also called Δ37-108 (R1)
B7: AnxA2 ΔR4-HA (deletion of aa 269-339) (other)
chain: MSTVHEILCKLSLEGDHSTPPSAYGSVKAYTNFDAERDALNIETAIKTKGVDEVTIVNILTNRSNAQRQDIAFAYQRRTKKELASALKSALSGHLETVILGLLKTPAQYDASELKASMKGLGTDEDSLIEIICSRTNQELQEINRVYKEMYKTDLEKDIISDTSGDFRKLMVALAKGRRAEDGSVIDYELIDQDARDLYDAGVKRKGTDVPKWISIMTERSVPHLQKVFDRYKSYSPYDMLESIRKEVKGDLENAFLNLVQCIQNKPLYPYDVPDYA
notes: also called Δ269-339 (R4)
B8: AnxA2 ΔR2-HA (deletion of aa 109-192) (other)
chain: MSTVHEILCKLSLEGDHSTPPSAYGSVKAYTNFDAERDALNIETAIKTKGVDEVTIVNILTNRSNAQRQDIAFAYQRRTKKELASALKSALSGHLETVILGLLKTPAQQDARDLYDAGVKRKGTDVPKWISIMTERSVPHLQKVFDRYKSYSPYDMLESIRKEVKGDLENAFLNLVQCIQNKPLYFADRLYDSMKGKGTRDKVLIRIMVSRSEVDMLKIRSEFKRKYGKSLYYYIQQDTKGDYQKALLYLCGGDDYPYDVPDYA
notes: also called Δ109-192 (R2)
B9: CHRD-V5 (C-terminal Cys-His-rich domain of PCSK9, V5-tagged) (other, human, UniProt Q8NBP7 455-692, looked up)
chain: LFCRTVWSAHSGPTRMATAVARCAPDEELLSCSSFSRSGKRRGERMEAQGGKLVCRAHNAFGGEGVYAIARCCLLPQANCSVHTAPPAEASMGTRVHCHQQGHVLTGCSSHWEVEDLGTHKPPVLRPRGQPNQCVGHREASIHASCCHAPGLECKVKEHGIPAPQEQVTVACEEGWTLTGCSALPGTSHVLGAYAVDNTCVVRSRDVSTTGSTSEGAVTAVAICCRSRHLAQASQELQ
notes: domain: CHRD; Conditioned medium of CHO-K1 cells; also called CHRD alone; not shown: C-terminal V5 tag

“And” between values parts separate entries of the source, which are not always exact repeats. Equal values may be shown once.

The target in assay [1] is T1, PCSK9-V5 (full-length human PCSK9 with C-terminal V5 tag) (human, UniProt Q8NBP7 31-692).
T1 construct: Used as conditioned medium of CHO-K1 cells (Far Western, pull-down) or co-expressed in cells (co-IP); The background says PCSK9 is secreted as a prosegment-PCSK9 heterodimer; also called full-length (FL) PCSK9-V5; native PCSK9; not shown: C-terminal V5 tag
Nature of the assay: poly-histidine pull-down, AnxA1-(His)6 on cobalt chelate beads, PCSK9-V5 medium. The method, then: (§1) FIG. 4. Characterization of the interaction of PCSK9 with AnxA2. (A) PCSK9-V5 Far Western blot of lysates of COS-1 cells, wild type (WT) CHO-K1 cells, CHO-K1 cells overexpressing an empty vector (pIRES), AnxA1 or AnxA2. (B) Poly-histidine pull-down assay. Purified native AnxA2-(His)₆ or AnxA1-(His)₆ were immobilized on cobalt chelate beads and incubated with PCSK9-V5. […] PCSK9 (heavy arrow) and its furin-cleaved form (PCSK9-Δ218; light arrow) were pulled-down by AnxA2. (C) Co-immunoprecipitation experiments of CHO-K1 cells co-transfected with PCSK9-V5 and either AnxA1-HA, AnxA2-HA or with AnxA2-HA and p11. […] Expression of the transfected constructs was analyzed by Western blotting of cell lysates using the anti-V5-HRP or anti-HA-HRP antibodies. (D, left panel) PCSK9-V5 Far Western blots of purified AnxA2-(His)₆ in the absence or presence of reducing agents. Note that in non-reducing conditions, PCSK9-V5 binds both the dimer and monomer forms of AnxA2. (D, right panel) Western blots of the purified AnxA2-(His)₆ using the anti-AnxA2 mAb in non-reducing or reducing conditions. […]
20 μg of purified AnxA2-(His)₆ or AnxA1-(His)₆ or no proteins (for negative control) were immobilized onto a cobalt chelate resin (Thermo Scientific). […] Supernatants were analyzed by Western blot as described above using the anti-V5-HRP or anti-His-HRP antibodies.

The target in assay [2] is T2, purified biotin-conjugated PCSK9 (UniProt Q8NBP7 31-692, limits assumed, biotin-conjugated (site not stated)).
T2 construct: Coated on streptavidin donor beads; also called PCSK9 (AlphaScreen donor beads)
The experiment in a line: AlphaScreen competition of biotin-PCSK9 binding to His6-LDLR ectodomain. As to the method: AlphaScreen® (Perkin Elmer) streptavidin donor beads were coated with purified biotin-conjugated PCSK9 and AlphaScreen® nickel chelate acceptor beads were coated with purified His6-conjugated LDLR ectodomain. Competition in the AlphaScreen® PCSK9-LDLR interaction assay was measured, in the presence of increasing concentrations of AnxA2-derived peptides, as a reduction of fluorescence.

The target in assay [3] is T1, PCSK9-V5 (full-length human PCSK9 with …). Nature of the assay: co-immunoprecipitation with anti-V5 from co-transfected CHO-K1 cells. The method, then: as §1, with “conditions. (E, upper panel) Media from CHO-K1 cells expressing PCSK9-V5 or the CHRD-V5 were separated by SDS-PAGE (8%), transferred onto nitrocellulose, incubated with purified AnxA2-(His)₆ and probed with the anti-His-HRP antibody.” for “conditions.”

Assay [4] has the same target. Nature of the assay: Far Western blot of HEK293 lysates.
Assay [5] has the same target. Nature of the assay: Far Western blot of lysates of CHO cells overexpressing AnxA1. As to the method:
Lysates (20 to 30 μg protein), media or purified AnxA2-(His)₆ were heated in reducing or non-reducing Laemmli sample buffer, resolved by SDS-PAGE on 8% glycine gels and electro-transferred onto nitrocellulose membranes (GE Healthcare). Following 1 h incubation in 5% skim milk in Tris-Buffered Saline-0.1% Tween (TBST), membranes where incubated with conditioned media of CHO-K1 cells overexpressing either an empty vector (pIRES-V5), PC5A-V5, CHRD-V5, pIRES-D374Y, PCSK9-V5 or its V5-tagged mutants, or incubated with purified AnxA2-(His)₆ for 3 h at room temperature. […] For competition experiments, 10 μg of His-tagged PCSK9 or CHRD were added to the PCSK9-V5 media before Far Western blotting. For PCSK9 binding requirements with the ˜33 kDa protein, 1M NaCl, 10 mg/ml heparin, 1M NaCl+10 mg/ml heparin, or 100 mM EDTA were added to the PCSK9-V5 conditioned media used for Far Western blotting.

The target in assay [6] is T3, ˜33 kDa protein of COS-1 cells, identified as monkey Annexin A2 (AnxA2; XP-001155637) (monkey).
T3 construct: Denatured on nitrocellulose in Far Western blots; native in co-IP; The ˜33 kDa band was also seen in BSC40 and HuH7 lysates; also called endogenous Annexin A2
T3 sequence (P07355 2-339): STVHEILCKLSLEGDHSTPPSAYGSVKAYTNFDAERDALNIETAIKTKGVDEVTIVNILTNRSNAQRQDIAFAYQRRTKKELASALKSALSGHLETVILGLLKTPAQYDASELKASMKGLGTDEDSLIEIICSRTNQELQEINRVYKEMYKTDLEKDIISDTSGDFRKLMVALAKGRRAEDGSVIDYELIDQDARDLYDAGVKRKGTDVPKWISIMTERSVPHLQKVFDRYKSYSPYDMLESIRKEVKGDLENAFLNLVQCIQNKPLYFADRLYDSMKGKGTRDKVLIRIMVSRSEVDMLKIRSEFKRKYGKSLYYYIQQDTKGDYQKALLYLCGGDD
Nature of the assay: Far Western blot of COS-1 lysates. As to the method:
All of these were detected by the HRP-tagged V5 mAb. (B) The COS-1 cells soluble fraction (supernatant S3; 3 μg protein) was analyzed by Far Western blot and compared to 30 μg protein loads from other subcellular fractions. […] (D) For competition experiments, purified PCSK9-His or CHRD-His were added to the PCSK9-V5 conditioned media used for Far Western blotting. (E) PCSK9-V5-binding requirements were tested by adding 1M NaCl, 10 mg/ml heparin, 1M NaCl+10 mg/ml heparin, or 100 mM EDTA to the PCSK9-V5 conditioned media used for Far Western blotting. Heavy arrows point to the migration position of the ˜33 kDa protein, and the light arrow to that of the ˜45 kDa protein. (−) denotes a control lane where nothing was added to the Far Western blotting media;
Lysates (20 to 30 μg protein), media or purified AnxA2-(His)₆ were heated in reducing or non-reducing Laemmli sample buffer, resolved by SDS-PAGE on 8% glycine gels and electro-transferred onto nitrocellulose membranes (GE Healthcare). Following 1 h incubation in 5% skim milk in Tris-Buffered Saline-0.1% Tween (TBST), membranes where incubated with conditioned media of CHO-K1 cells overexpressing either an empty vector (pIRES-V5), PC5A-V5, CHRD-V5, pIRES-D374Y, PCSK9-V5 or its V5-tagged mutants, or incubated with purified AnxA2-(His)₆ for 3 h at room temperature. […]

Assay [7] addresses B6. The experiment in a line: Far Western blot of HEK293 lysates.

Nine molecules from patent publication US20110118181A1 (INSTITUT DE RECHERHES CLINIQUES DE MONTREAL, published 2011) can be followed below.

As for B1, the binding result in assay [1] is “no binding”.
In the case of B2, the IC50 in assay [2] is 500 nM to 1 µM (2×) and 750 nM.
Regarding B3, in assay [3], the binding result is listed as “no binding”.
As to B4, the binding result in assay [4] is “binds”.
Regarding B5, the binding result in assay [5] is listed as “no binding”.
For the molecule B6, in assay [4], the binding result was “no binding”.
The same measure, in the same setting: the same measure for B7: “binds”; for B8: “binds”.
Turning to B9, the “fold binding against full length PCSK9” value in assay [6] was 3 fold. Besides, the binding result in assay [7] is “no binding”.
